{"source": "the supplement of paper PMC9112550", "about": "“Optimization of the antimicrobial peptide Bac7 by deep mutational scanning” (BMC Biology, 2022);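 further: peptides expressed intracellularly from a pBAD plasmid library in pooled LB shake-flask culture, induced with 0.3% L-arabinose, DNA abundance read by NGS, three biological replicates, DESeq2 with apeglm shrinkage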"}
{"tested_on": "Escherichia coli TOP10", "assay": "shrunken log2 fold change of peptide-encoding DNA abundance (4.5 h post-induction vs induction); higher = less antimicrobial activity (less host growth inhibition)", "conditions": "time post-induction: 4.5 h; library: site-saturation at positions 5, 18, 19, 20"}
{"sequence": "RRIRIRPPRLPRPRPRPGAWPRP", "shrunken log2 fold change": 0.215}
{"sequence": "RRIRDRPPRLPRPRPRPYTLPRP", "shrunken log2 fold change": -0.153}
{"sequence": "RRIRCRPPRLPRPRPRPNAGPRP", "shrunken log2 fold change": -0.0355}
{"sequence": "RRIRIRPPRLPRPRPRPWWLPRP", "shrunken log2 fold change": -0.0152}
{"sequence": "RRIRPRPPRLPRPRPRPVIKPRP", "shrunken log2 fold change": -0.215}
{"sequence": "RRIRGRPPRLPRPRPRPHTQPRP", "shrunken log2 fold change": 0.0483}
{"sequence": "RRIRTRPPRLPRPRPRPFISPRP", "shrunken log2 fold change": -0.0743}
{"sequence": "RRIRARPPRLPRPRPRPRTAPRP", "shrunken log2 fold change": 0.844}
{"sequence": "RRIRQRPPRLPRPRPRPEYPPRP", "shrunken log2 fold change": -0.22}
{"sequence": "RRIRLRPPRLPRPRPRPHDSPRP", "shrunken log2 fold change": 0.0936}
{"sequence": "RRIRGRPPRLPRPRPRPGNIPRP", "shrunken log2 fold change": -0.104}
{"sequence": "RRIRCRPPRLPRPRPRPGFSPRP", "shrunken log2 fold change": -0.257}
{"sequence": "RRIRLRPPRLPRPRPRPKKNPRP", "shrunken log2 fold change": 0.144}
{"sequence": "RRIRGRPPRLPRPRPRPQVTPRP", "shrunken log2 fold change": 0.0826}
{"sequence": "RRIRWRPPRLPRPRPRPKWNPRP", "shrunken log2 fold change": -0.095}
{"sequence": "RRIRSRPPRLPRPRPRPELVPRP", "shrunken log2 fold change": 0.111}
{"sequence": "RRIRCRPPRLPRPRPRPYGGPRP", "shrunken log2 fold change": -0.136}
{"sequence": "RRIRARPPRLPRPRPRPDYLPRP", "shrunken log2 fold change": -0.805}
{"sequence": "RRIRWRPPRLPRPRPRPNIRPRP", "shrunken log2 fold change": -0.135}
{"sequence": "RRIRGRPPRLPRPRPRPGLWPRP", "shrunken log2 fold change": 1.03}
{"sequence": "RRIRNRPPRLPRPRPRPSSNPRP", "shrunken log2 fold change": -0.416}
{"sequence": "RRIRGRPPRLPRPRPRPDSDPRP", "shrunken log2 fold change": 0.0289}
{"sequence": "RRIRFRPPRLPRPRPRPHIGPRP", "shrunken log2 fold change": -0.482}
{"sequence": "RRIRQRPPRLPRPRPRPDHWPRP", "shrunken log2 fold change": -0.368}
{"sequence": "RRIRHRPPRLPRPRPRPILVPRP", "shrunken log2 fold change": -0.148}
{"sequence": "RRIRQRPPRLPRPRPRPRYYPRP", "shrunken log2 fold change": -0.465}
{"sequence": "RRIRWRPPRLPRPRPRPEENPRP", "shrunken log2 fold change": -0.0122}
{"sequence": "RRIRQRPPRLPRPRPRPDYEPRP", "shrunken log2 fold change": 0.0301}
{"sequence": "RRIRKRPPRLPRPRPRPNVLPRP", "shrunken log2 fold change": -0.112}
{"sequence": "RRIRCRPPRLPRPRPRPWARPRP", "shrunken log2 fold change": -0.188}
{"sequence": "RRIRRRPPRLPRPRPRPDYMPRP", "shrunken log2 fold change": -0.384}
{"sequence": "RRIRPRPPRLPRPRPRPAGKPRP", "shrunken log2 fold change": -0.0291}
{"sequence": "RRIRLRPPRLPRPRPRPRWKPRP", "shrunken log2 fold change": 0.191}
{"sequence": "RRIRTRPPRLPRPRPRPQCEPRP", "shrunken log2 fold change": -0.0143}
{"sequence": "RRIRDRPPRLPRPRPRPHREPRP", "shrunken log2 fold change": 0.0506}
{"sequence": "RRIRDRPPRLPRPRPRPKFIPRP", "shrunken log2 fold change": -0.14}
{"sequence": "RRIRRRPPRLPRPRPRPDDQPRP", "shrunken log2 fold change": 0.167}
{"sequence": "RRIRARPPRLPRPRPRPIIIPRP", "shrunken log2 fold change": -0.235}
{"sequence": "RRIRGRPPRLPRPRPRPTWIPRP", "shrunken log2 fold change": 0.25}
{"sequence": "RRIRCRPPRLPRPRPRPQLNPRP", "shrunken log2 fold change": -0.188}
{"sequence": "RRIRGRPPRLPRPRPRPYKHPRP", "shrunken log2 fold change": -0.463}
{"sequence": "RRIRVRPPRLPRPRPRPEANPRP", "shrunken log2 fold change": -0.141}
{"sequence": "RRIRCRPPRLPRPRPRPRMCPRP", "shrunken log2 fold change": 0.337}
{"sequence": "RRIRCRPPRLPRPRPRPWQDPRP", "shrunken log2 fold change": -0.154}
{"sequence": "RRIRYRPPRLPRPRPRPWQLPRP", "shrunken log2 fold change": -0.647}
{"sequence": "RRIRERPPRLPRPRPRPFVCPRP", "shrunken log2 fold change": -0.582}
{"sequence": "RRIRDRPPRLPRPRPRPVDCPRP", "shrunken log2 fold change": -0.0327}
{"sequence": "RRIRPRPPRLPRPRPRPEVRPRP", "shrunken log2 fold change": -0.0106}
{"sequence": "RRIRKRPPRLPRPRPRPPQIPRP", "shrunken log2 fold change": 0.661}
{"sequence": "RRIRLRPPRLPRPRPRPMIAPRP", "shrunken log2 fold change": -0.141}
